Laboratory results from patent publication US20110294982A1 (Ablynx, published 2011).

B1: 140-A2 (VHH)
VHH: EVQLVESGGGLVQAGGSLRLSCAASGSTYRLNNMAWYRQSPGKKRELVALISGITSDPSTYYLDSVRGRFSISRDNALNTVYLQMNSLKPEDTAVYYCKQAWAGVEYWGQGTQVTVSS
B2: 140-F10 (VHH)
VHH: EVQLVESGGGSVQAGGSLRLSCAASQRTFSSDVMGWFRQAPGKERDFVAYIHRSGTTYYADSVKGRLTISRDNAKSTVYLQMNSLKPEDTAVYHCAAGRYGSTSDTLYDYWGQGTQVTVSS
B3: 140-B8 (VHH)
VHH: EVQLVESGGGSVQAGGSLRLSCAASQRTFSRDVMGWFRQAPGKERDFVAYSHRSGTTYYADSVKGRFTISRDNAKSTVYLQMNSLKPEDTAVYHCAAGRYGSTSDTLYDYWGQGTQVTVSS
B4: 140-A10 (VHH)
VHH: EVQLVESGGGLVQPGGSLRLSCAASGFTFSRMAMGWYRQAPGVERDFLAIISPGGGTNYADSVKGRFTISRDNAKNTVYLQMNSLKPEDTAVYYCNARNFEGRRVDYWGQGTQVTVSS
B5: 140-A5 (VHH)
VHH: EVQLVESGGGSVQAGGSLRLSCAASGTTATITVPGWYRQAPGKQRELVAVINSGGTKKYADSVKGRFTISIDNVKRTLYLEMNSLRPEDTAVYYCSTLKYWGQGTQVTVSS
B6: 140-H8 (VHH)
VHH: EVQLVESGGGLVQAGGSLRLSCAASISANAIDVVSWYRQAPGKPRELAASITSAGRIKYAESVKGRFGISRDNAKNTVSLQMNSLKPEDTAVYYCNALYRNAIYWGQGTQVTVSS
B7: 140-H10 (VHH)
VHH: EVPLVESGGGSVQAGGSLRLSCAASQRTFSRDVTGWFRQAPGKERDFVAYIHRSGETTYYADSVKGRFTISRDNAKSTVYLQMNSLKPEDTAVYHCAAGRYGSTSDTLYDYWGQGTQVTVSS
B8: 140-D4 (VHH)
VHH: EVQLVESGGGLVEAGGSLRLSCATSGSTFGIEAMAWYRQAPGKQRELVATINSASRTNYADSVKGRFTISRDTGKSILYLQMNNLEPEDTAVYYCKITTPLPYRRDFWGQGTQVTVSS
B9: 140-E10 (VHH)
VHH: EVQLVESGGGLVQAGESLKLSCVASGNILRVTSMGWGRQIPGKQRKLVAWITNEGRTEYADSVKGRFTISRDNAQNTLYLLMNSLKPEDTAVYYCYGFSPRESSGNTYWGQGTQVTVSS
B10: 140-G8 (VHH)
VHH: EVQLVESGGGSVQAGGSLRLSCTASGSIFSINDMGWYRQPPGEQRELVATLTSSDSTKYADSVKSRFTISRDNAKNTVYLQMNSLKPEDTAVYYCNAVINRRGDGRNWSREYWGQGTQVTVSS
B11: VHH-H6 (VHH)
VHH: QVQLQDSGGGLVQAGGSLRLSCEASGRTFSSYAMGWFRQPPGKEREWVSTISRSGSAIYAYPVKGRFTMSRDNAKNTVYLEMNSLKPEDTAVFYCAAARSGVPSSRPTDYDYWGQGTQVTVSS
notes: Used with a Myc tag (captured/detected with anti-Myc 9E10) and a C-terminal His6 tag (detected with anti-HIS6 (C-term)); also called H6-VHH

molecular target: T1, recombinant human alphavbeta6 (human, UniProt P06756 31-992; P18564 22-707, limits assumed); assay: specificity ELISA on coated integrins, periplasmic extract
T1 construct: Bought, carrier free (R&D Systems 3817-AV/CF); also called aVb6
T1 sequence (P06756 31-992 limits assumed, chain 1 of 2): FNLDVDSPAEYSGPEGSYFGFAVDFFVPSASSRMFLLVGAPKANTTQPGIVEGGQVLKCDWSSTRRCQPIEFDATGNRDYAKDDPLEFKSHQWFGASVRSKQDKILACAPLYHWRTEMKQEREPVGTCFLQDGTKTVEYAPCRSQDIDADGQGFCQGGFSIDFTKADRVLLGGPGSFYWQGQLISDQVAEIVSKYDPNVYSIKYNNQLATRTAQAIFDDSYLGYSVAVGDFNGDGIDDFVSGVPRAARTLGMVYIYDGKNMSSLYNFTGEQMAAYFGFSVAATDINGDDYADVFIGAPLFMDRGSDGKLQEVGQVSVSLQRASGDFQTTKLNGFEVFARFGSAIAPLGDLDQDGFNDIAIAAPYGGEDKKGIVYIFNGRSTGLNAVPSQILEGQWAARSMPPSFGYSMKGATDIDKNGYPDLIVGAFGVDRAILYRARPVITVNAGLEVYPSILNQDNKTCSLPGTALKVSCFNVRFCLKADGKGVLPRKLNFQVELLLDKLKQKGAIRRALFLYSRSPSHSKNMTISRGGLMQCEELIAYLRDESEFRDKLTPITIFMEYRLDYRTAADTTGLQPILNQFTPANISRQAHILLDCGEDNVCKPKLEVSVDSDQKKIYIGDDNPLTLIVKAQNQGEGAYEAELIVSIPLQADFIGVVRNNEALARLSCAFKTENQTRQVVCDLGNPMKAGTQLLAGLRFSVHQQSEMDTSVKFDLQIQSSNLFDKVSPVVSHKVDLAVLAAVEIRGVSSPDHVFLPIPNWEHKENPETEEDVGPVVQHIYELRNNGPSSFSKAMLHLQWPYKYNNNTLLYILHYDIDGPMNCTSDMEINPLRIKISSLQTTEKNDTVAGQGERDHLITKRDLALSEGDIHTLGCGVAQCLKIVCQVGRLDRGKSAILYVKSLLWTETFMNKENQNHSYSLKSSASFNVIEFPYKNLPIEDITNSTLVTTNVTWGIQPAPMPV
T1 sequence (P18564 22-707 limits assumed, chain 2 of 2): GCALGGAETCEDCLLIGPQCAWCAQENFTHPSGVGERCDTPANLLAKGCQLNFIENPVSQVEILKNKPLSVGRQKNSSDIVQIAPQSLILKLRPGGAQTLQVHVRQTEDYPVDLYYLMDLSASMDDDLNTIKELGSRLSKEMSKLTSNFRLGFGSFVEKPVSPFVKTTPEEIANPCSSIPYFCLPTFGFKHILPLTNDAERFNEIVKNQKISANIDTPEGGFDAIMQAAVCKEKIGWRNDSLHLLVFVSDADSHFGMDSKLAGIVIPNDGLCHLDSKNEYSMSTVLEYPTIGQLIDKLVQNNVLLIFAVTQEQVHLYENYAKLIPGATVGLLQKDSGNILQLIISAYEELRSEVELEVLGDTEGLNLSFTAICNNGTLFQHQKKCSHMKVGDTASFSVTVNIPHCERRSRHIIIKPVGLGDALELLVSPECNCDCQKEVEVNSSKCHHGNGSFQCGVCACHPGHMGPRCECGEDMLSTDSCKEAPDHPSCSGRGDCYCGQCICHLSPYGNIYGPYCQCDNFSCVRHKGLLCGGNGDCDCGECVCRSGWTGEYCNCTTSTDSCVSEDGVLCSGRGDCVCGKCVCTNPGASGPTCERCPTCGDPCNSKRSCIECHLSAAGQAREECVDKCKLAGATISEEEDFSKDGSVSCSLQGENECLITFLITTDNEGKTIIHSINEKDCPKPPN

Does B1 bind?
Result: binds

Does B2 bind?
Result: binds

Does B3 bind?
Result: binds

Does B4 bind?
Result: binds

Does B5 bind?
Result: binds

Does B6 bind?
Result: binds

Does B7 bind?
Result: binds

Does B8 bind?
Result: binds

Does B9 bind?
Result: binds

Does B10 bind?
Result: binds

molecular target: T2, recombinant VLA-5 (α5β1 integrin) (UniProt P08648 42-995; P05556 21-728, limits assumed); assay: ELISA, integrin coated at 0.5 µg/well
T2 construct: also called α5β1 (VLA-5) integrin; a5β1 integrin
Experimental: FIG. 3: Direct binding of VHH-H6 to recombinant α3β1 integrin. Recombinant VLA-3 (α3β1 integrin) or recombinant VLA-5 (a5β1 integrin) were coated into Maxisorb plates at 0.5 μg/well, and binding with VHH-H6 or no VHH (in which anti-Myc was used) was assayed in ELISA. Binding of the VHHs to the integrins is expressed as absorbance at 450 nm. Data represents the mean±standard deviation of three independent experiments

T2 sequence (P08648 42-995 limits assumed, chain 1 of 2): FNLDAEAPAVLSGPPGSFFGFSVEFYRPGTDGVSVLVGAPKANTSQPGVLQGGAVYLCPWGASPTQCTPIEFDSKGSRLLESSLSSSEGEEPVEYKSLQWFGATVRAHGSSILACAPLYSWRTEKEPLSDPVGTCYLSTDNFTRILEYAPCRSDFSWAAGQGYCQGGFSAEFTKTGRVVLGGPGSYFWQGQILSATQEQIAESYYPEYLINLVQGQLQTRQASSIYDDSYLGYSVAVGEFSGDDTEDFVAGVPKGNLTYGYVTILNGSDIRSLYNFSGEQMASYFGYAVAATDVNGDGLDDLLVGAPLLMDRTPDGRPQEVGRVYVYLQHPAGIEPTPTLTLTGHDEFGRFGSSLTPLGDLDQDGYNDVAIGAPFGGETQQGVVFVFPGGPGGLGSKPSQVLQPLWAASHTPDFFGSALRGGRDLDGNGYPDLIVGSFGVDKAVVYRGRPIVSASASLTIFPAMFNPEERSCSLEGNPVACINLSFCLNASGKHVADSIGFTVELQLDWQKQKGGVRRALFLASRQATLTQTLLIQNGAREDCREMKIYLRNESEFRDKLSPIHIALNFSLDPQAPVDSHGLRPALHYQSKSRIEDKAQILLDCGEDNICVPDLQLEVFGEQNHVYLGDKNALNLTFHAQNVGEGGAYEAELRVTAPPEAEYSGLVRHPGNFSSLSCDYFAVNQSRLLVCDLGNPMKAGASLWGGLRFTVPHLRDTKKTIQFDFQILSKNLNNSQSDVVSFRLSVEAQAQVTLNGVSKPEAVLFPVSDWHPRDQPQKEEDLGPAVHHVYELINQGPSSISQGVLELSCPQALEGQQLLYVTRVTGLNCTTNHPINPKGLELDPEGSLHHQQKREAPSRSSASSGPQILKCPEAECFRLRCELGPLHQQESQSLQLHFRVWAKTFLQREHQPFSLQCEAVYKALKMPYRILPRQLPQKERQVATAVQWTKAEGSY
T2 sequence (P05556 21-728 limits assumed, chain 2 of 2): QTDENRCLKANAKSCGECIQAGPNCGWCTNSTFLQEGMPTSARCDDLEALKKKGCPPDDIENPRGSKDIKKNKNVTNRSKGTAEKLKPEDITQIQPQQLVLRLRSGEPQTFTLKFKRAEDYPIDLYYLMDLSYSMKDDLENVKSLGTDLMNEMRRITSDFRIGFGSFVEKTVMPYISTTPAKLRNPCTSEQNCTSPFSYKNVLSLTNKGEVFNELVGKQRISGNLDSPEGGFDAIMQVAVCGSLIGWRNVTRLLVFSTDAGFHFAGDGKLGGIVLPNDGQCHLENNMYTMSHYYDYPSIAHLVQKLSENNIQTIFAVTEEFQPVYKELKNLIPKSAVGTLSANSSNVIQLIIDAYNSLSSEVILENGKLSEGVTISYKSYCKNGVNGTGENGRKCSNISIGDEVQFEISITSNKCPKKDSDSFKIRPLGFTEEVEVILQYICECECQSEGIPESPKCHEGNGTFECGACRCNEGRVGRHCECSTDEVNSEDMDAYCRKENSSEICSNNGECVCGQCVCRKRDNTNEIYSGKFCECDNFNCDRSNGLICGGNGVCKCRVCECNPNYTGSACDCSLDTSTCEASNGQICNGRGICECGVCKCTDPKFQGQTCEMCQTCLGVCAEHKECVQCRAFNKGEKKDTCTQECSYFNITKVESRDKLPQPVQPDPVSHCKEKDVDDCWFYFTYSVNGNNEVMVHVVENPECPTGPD

Does B11 bind?
Result: no binding
